Here are results for two molecules from PMC4499121.

Residue numbers refer to the chain shown, from its start.

Series [1] deals with T1, Interleukin 10 receptor alpha chain, Fc fusion (human, UniProt Q13651 22-235).
T1 sequence: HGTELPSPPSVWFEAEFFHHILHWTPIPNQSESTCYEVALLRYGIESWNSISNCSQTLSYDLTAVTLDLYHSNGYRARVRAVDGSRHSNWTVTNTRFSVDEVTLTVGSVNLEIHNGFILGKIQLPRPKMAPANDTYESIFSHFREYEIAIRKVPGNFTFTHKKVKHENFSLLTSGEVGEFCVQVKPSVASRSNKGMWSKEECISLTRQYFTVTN
In words: double filter binding; text: mutant with highest change in affinity; Fig 3D legend gives that to Mutant 2; Binding buffer (composition and pH not given), 37 C, 5' 32P RNA with a range of protein concentrations, nitrocellulose/nylon double filter; Kd = protein concent.

For series [2], the target named is T1, Interleukin 10 receptor alpha chain, Fc …. In words: double filter binding; improved relative to cluster 1 seed; Binding buffer (composition and pH not given), 37 C, 5' 32P RNA with a range of protein concentrations, nitrocellulose/nylon double filter; Kd = protein concent.

B1: cluster 1 Mutant 1 (ssRNA)
RNA: GGGAGAGAGGAAGAGGGAUGGGUAACACUCGAUUCUCCUAGCCCUCUAGAAAUUCCCCUCCCCGACGACUCGCUGAGAUCGAGA
modifications: DuraScribe IVT transcript (2'-F pyrimidines implied by the kit, not stated)
In series [1], B1 gave a Kd of 27 nM.

B2: cluster 1 Mutant 2 (ssRNA)
RNA: B1 RNA with G41U, U45G
modifications: DuraScribe IVT transcript (2'-F pyrimidines implied by the kit, not stated)
For the molecule B2, the binding result in series [2] is listed as “binds”.
